US20110301073, “Novel DNA-binding proteins and uses thereof” (Sangamo BioSciences, Inc., published 2011)

Tests used:
TALE13 +28 FokI = target: T1, TALE13 +28 FokI (Xanthomonas axonopodis (engineered)); assay: cleavage_in_vitro; two inverted sites, 16 bp gap; NEB Buffer 2, 37 C; conditions: tags: FLAG, NLS, chain copies: 2
T1 chain: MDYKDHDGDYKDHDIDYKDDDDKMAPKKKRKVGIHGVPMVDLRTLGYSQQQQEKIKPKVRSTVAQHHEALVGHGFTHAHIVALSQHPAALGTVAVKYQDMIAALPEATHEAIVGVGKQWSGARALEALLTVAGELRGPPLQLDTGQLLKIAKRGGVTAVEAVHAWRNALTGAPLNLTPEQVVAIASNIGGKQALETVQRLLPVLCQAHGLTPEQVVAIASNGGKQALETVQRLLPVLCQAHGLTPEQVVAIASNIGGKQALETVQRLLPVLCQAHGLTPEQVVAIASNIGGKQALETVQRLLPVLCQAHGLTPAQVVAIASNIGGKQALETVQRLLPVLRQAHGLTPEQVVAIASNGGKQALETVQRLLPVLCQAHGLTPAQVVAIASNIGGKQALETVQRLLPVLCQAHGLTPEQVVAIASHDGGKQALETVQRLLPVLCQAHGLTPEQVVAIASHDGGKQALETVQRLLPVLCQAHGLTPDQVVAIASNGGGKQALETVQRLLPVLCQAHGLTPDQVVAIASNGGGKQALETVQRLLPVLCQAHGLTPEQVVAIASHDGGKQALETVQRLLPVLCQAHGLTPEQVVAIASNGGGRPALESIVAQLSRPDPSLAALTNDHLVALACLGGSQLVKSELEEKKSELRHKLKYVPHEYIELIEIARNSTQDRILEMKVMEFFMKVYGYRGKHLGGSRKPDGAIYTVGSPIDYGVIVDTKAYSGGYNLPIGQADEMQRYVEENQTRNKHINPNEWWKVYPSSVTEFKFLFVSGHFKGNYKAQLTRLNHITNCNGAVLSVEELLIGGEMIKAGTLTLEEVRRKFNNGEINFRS
Experimental: (§1) TALE domain fusions were also constructed using Fold cleavage half domains. For these examples, wild type FokI half cleavage domains were used so that for nuclease activity, a homodimer must be formed from two of the fusions. For these fusions, the TALE13 DNA binding domain was fused to each FokI half domain by cloning the TALE DNA binding domain into a plasmid adjacent to FokI-specifying sequence. In addition, various linkers were tested for use between the DNA binding domain and the nuclease domain. Linkers L2 and L8 were used which are as follows: L2=GS (SEQ ID NO:71) and L8=[…] (SEQ ID NO:72). The target sites were cloned into a TOPO2.1 target vector (Invitrogen) with varying gap spacings between each target binding site such that the two were separated from each other by 2 to 22 bp. PCR amplification of an approximately 1 kb region of the target vector was done to generate the target DNAs. The TALE DNA binding domains were also truncated as described previously, and are described using the same nomenclature as described above in Examples 2 and 6. The TALE domain nuclease fusion clones were expressed in the TNT Rabbit Reticulocyte Lysate system by adding 5 μL of water containing 250 nanograms of the nuclease fusion clone plasmid to 20 μL of lysate and incubating at 30° C. for 90 minutes.
(§2) The lysate was then used to cleave the target DNAs as follows: 2.5 μL of lysate were added to a 50 μL reaction containing 50 nanograms of PCR-amplified target DNA and a final Buffer 2 (New England Biolabs) concentration of 1×. The cleavage reaction was for one hour at 37° C., followed by a 20 minute heat inactivation stage at 65° C. The reaction was then centrifuged at high speed to separate the target DNA from the lysate, causing the lysate to condense into a pellet in the reaction well. The DNA-containing supernatant was pipetted off and run on an ethidium bromide-stained agarose gel (Invitrogen) to separate intact target DNA from cleaved target DNA. The agarose gel was then analyzed using AlphaEaseFC (Alpha Innotech) software to measure the amount of target DNA present in the large uncleaved DNA band and the two smaller DNA bands resulting from a single cleavage event of the target DNA. The percentage of cleaved DNA out of the total amount of target DNA loaded into the gel represents the percent cleavage in each reaction.

TALE13 +63 FokI = target: T2, TALE13 +63 FokI (Xanthomonas axonopodis (engineered)); assay: as above; conditions: tags: FLAG, NLS, chain copies: 2
T2 chain: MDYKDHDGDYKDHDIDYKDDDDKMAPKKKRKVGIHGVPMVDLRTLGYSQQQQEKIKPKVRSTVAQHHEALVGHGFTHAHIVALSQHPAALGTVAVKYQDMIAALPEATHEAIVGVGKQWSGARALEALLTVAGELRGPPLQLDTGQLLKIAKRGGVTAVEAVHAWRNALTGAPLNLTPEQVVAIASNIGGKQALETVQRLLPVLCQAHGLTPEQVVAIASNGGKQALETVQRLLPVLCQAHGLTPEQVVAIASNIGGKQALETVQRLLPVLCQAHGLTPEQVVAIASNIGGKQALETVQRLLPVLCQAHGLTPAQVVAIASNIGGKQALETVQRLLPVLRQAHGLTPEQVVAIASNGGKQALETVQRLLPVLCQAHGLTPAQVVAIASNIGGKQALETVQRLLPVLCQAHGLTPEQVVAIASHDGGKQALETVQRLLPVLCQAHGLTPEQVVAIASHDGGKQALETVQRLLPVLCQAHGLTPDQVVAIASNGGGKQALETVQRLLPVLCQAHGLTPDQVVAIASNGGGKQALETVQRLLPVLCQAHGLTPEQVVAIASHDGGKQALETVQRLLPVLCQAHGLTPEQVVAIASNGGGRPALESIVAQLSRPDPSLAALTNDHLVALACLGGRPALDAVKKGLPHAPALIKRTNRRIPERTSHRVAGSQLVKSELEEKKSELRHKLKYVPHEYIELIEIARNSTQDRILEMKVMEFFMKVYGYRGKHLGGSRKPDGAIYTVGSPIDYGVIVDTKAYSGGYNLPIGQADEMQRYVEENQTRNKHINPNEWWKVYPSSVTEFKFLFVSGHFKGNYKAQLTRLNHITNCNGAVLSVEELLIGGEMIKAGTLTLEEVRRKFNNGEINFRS
Experimental: as §1, §2

B1: TALE13 target (dsDNA)
DNA 1: TATAAATACCTTCT
DNA 2: AGAAGGTATTTATA
- activity (TALE13 +28 FokI): 100 % cleavage
- activity (TALE13 +63 FokI): 70 % cleavage
